Results on 9 molecules are retold here after patent publication US20170152308A1 (Biogen, published 2017).

The labels stand for the following.
B1: NI-205.25F3 (antibody, human IgG1, V domains shown)
VH: QVQLVESGGGVVQPGRSLRLSCAASGFTFSNYVMYWVRQAPGKGLEWVAFISYDGSNKYYPDSVKGRFTISRDNSMNTLYLQMDSLRAEDTAVYYCARDTYQYDSSTYYPYFYYYGMDVWGQGTTVTVSS
VL: QSALTQPASVSGSPGQSITISCIGTSSDVGGYNYVSWYQQHPGKAPKLMIYEVSNRPSGVSSRFSGSKSGNTASLTISGLQSEDEADYYCSSFASSSTSVTFGGGTKLTVL
notes: Human-derived
B2: NI-205.8A2 (antibody, human IgG1, V domains shown)
VH: QVQLVESGGGVVQPGKSLRLSCAASGFTFRDHGMHWVRQAPGKGLEWVAVIWLDGSSRFYADSVEGRFTISRDNSKNTLYLQLTSLRAEDTAIYYCARDRVASEGTAFDVWGQGTMVTVSS
VL: EIVLTQSPATLSLSPGERATLSCWASQNVNHYLVWYQQRPGQAPRLLLYDTSVRAAGIPARFIGSGSGTHFTLTISSLEPEDSAVYYCQHRSDWTFGQGTKVEIK
notes: Human-derived
B3: NI-205.15F12 (antibody, human IgG1, V domains shown)
VH: QVQLVQSGTAVKKPGASVKVSCKASGFSFNGYYMHWVRQAPGQGLEWMGVINPNGGSTNYAQKFKGRITMSADTPARSVSMELGSLRSDDTAMYYCARLPVNIEVLDLWGQGTLVTVSS
VL: DIVMTQSPDSLAVSLGERATINCRSSQTVLFSSNDKNYLAWYQQKPGQPPKLLIYWASVRASGVPDRFSGSGSGTDFSLTINGLQAEDVAVYYCQQSSTAPLTFGGGTKVEIK
notes: Human-derived
B4: NI-205.36D5 (antibody, human IgG1, V domains shown)
VH: QVQLVESGGGVVQPGRSLRLSCAASRFTFSSYGMHWVRQAPGKGLEWVALIYYDATQKYYADSVKGRFTISRDNSKNALYLQMTSLRADDTAVYYCARDLPYHYHRSASFAPADTWGQGTLVTVSS
VL: EIVLTQSPGTLSLSPGERATLSCRASQTISNNYLAWYQQKPGQAPRLLVYAASSRATGIPDRFYGSGSGADFTLTISRLEPEDFVVYYCQQYGSSPITFGQGTRLEIK
notes: Human-derived
B5: NI-205.10H7 (antibody, human IgG1, V domains shown)
VH: QVQLVESGGGVVQPGRSLRLSCAASGFTFSNYAMHWVRQAPGKGLEWVAVIWYDGSKKYYGDSVKGRFTISRDNPKNTLYLQMNSLRVEDTAIYYCVPDAFDMWGQGTMVTVSS
VL: DIVMTQTPLSSPVTLGQPASISCRSSQSLVHTDGKTYLSWLHQRPGQPPRPLIYKMSKRFSGVPDRFSGSGAETEFTLKISRVEAEDVGIYYCLQLTQFPITFGQGTRLEIK
notes: Human-derived
B6: NI-205.31D2 (antibody, human IgG1, V domains shown)
VH: EVQLLESGGGSVQPGGSLRLSCAASGFTFSTYVMSWVRQAPGKGLEWVSAISRRGGSTYYADSVKGRFTISRDNSKNTLYLQMNSLRAEDTAVYYCAKDRWLTGRTGGVFDIWGQGTMVTVSS
VL: not shown
notes: Human-derived
B7: NI-205.10D3 (antibody, human IgG1, V domains shown)
VH: QVQLQESGPGLVKPSETLSLTCTVSGGSITDYYWSWIRQPPGKGLEWIGYIHDSGTTRYNPSLTSRLSMSLDTSTNQVSLRLTSVTAADTAVYYCAKVPDYWGQGTLVTVSS
VL: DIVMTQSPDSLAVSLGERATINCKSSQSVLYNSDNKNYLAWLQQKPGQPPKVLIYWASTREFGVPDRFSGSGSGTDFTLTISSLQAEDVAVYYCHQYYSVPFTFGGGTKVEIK
notes: Human-derived
B8: NI-205.8F8 (antibody, human IgG1, V domains shown)
VH: EVQLLESGGGLVQPGGSLRLSCAASGYTFSYYAMSWVRQAPGKGLEWVSTIGDSGSTTHYADSVKGRFTISRDNSKSTLYLQMNSLRAEDTAVYYCAKGLGPVAAIGDYWGQGTLVTVSS
VL: QSVLTQPPSASGTPGQRVTISCSGSSSNIGSNNVYWYQQLPGTAPKLLVYRNNQRPSGVPDRVSGSKSGSSASLAISGLRSEDEADYYCAAWDDSLRGYVFGTGTKVTVL
notes: Human-derived
B9: NI-205.14H5 (antibody, human IgG1, V domains shown)
VH: EVQLLESGGGLVQPGGSLRLSCAASGFTFRNYAMAWVRQAPGKGLEWVSAIPARGDKTYYADSVRGRFTISRDISKSALYLQMNSLRVEDTAVYYCAKAHHLYNKNFDYWGQGTLVTVSS
VL: EIVLTQSPGTLSLSPGETVTLSCRASQSVSSSNLAWYQQKPGQAPRLLIYGASSRATGIPDRFSGRGSGTDFTLTISRLEPEDFAVYYCQHYGTFGQGTKVDIK
notes: Human-derived

As usually defined, the EC50 is the concentration at which the effect is half-maximal.

T3 sequence (Q13148 whole entry): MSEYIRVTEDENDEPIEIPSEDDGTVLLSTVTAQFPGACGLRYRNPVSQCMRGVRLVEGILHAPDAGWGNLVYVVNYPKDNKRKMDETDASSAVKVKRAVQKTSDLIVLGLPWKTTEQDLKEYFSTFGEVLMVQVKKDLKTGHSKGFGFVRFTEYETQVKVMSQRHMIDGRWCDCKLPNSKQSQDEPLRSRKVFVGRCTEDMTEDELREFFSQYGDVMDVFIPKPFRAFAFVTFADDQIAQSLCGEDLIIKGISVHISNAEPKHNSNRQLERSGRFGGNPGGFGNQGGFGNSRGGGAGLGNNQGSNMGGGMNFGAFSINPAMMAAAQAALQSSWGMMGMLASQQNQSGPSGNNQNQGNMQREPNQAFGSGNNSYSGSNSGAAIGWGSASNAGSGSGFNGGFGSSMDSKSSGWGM

One test concerns the target T1, recombinant full-length His-tagged human TDP-43 (2-414) (human, UniProt Q13148 2-414).
T1 construct: Amino terminal His tag, made in E. coli, purified in 8 M urea; also called full length TDP-43; full-length TDP-43
Description: direct ELISA, coated antigen. Here is the method: (§1) The half maximal effective concentration (EC₅₀) of the human-derived TDP-43-specific antibodies for human TDP-43 and their target target-specificity was determined substantially as described in Example 2 above. Briefly, 96 well microplates (Corning) were coated with recombinant full length TDP-43 (Biogen Idec, USA), Escherichia coli extract and BSA (Sigma, Buchs, Switzerland), diluted to a concentration of 5 μg/ml in carbonate ELISA coating buffer (pH 9.6) overnight at 4° C. […] Non-specific binding sites were blocked for 1 hr. at room temperature with PBS containing 2% BSA (Sigma, Buchs, Switzerland). Human TDP-43-specific antibodies were diluted to the indicated concentrations and incubated 1 hr. at room temperature. Binding was determined using a donkey anti-human IgGγ-specific secondary antibody conjugated with HRP (Jackson ImmunoResearch, USA), followed by measurement of HRP activity in a standard colorimetric assay. EC₅₀ values were estimated by a non-linear regression using GraphPad Prism software (San Diego, USA).
For B1, the half-maximal effective concentration (EC50) was found to be 13.3 nM.
With B2, the EC50 is 7.2 nM.
Still for that read-out and setting: as for B3, the figure is 7.2 nM.

The target in the next test is T2, 6xHis-SUMO-TDP-43 (220-414) (human, UniProt Q13148 220-414).
T2 construct: Captured on the plate by an anti-6xHis antibody; also called 6xHis/SUMO tagged truncated TDP-43; not shown: N-terminal 6xHis and SUMO tags from a modified pET19-b vector
T2 sequence (Q13148 220-414): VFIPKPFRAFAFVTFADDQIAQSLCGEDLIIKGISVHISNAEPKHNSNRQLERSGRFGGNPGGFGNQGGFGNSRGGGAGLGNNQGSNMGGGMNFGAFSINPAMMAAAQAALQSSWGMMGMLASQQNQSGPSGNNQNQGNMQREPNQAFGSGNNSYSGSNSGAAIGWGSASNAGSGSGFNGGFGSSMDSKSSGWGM
The test is described as follows: capture ELISA, antigen held by anti-6xHis antibody. How it is done: (§2) Non-specific binding sites were blocked for 1 hr at RT with PBS containing 1% BSA (Sigma) and 0.05% Tween-20 (Fisher Scientific). 6×His-SUMO-TDP43 proteins at a concentration of 1.7 μM were allowed to bind to antibody-coated plates for 1 hr at RT in PBS buffer containing 1% BSA, 300 mM arginine and 0.1% PEG 5000, pH 7.5. Plates were incubated for 1 hr at RT with human antibodies of present invention, titrated in a three-fold dilution series, followed by HRP conjugated anti-human IgG Fc γ (Jackson ImmunoResearch) in PBST containing 1% BSA. HRP activity was measured in a standard colorimetric assay. EC₅₀ values were calculated using a four-parameter logistic curve fit on Softmax pro software (Molecular Devices).
(§3) We measured the binding affinity of the human-derived TDP-43 specific antibodies provided herein to properly folded 6×His/SUMO tagged TDP-43 using a capture ELISA in which native TDP-43 was immobilized without direct adsorption on the surface of the ELISA plate. This was achieved by immobilizing an anti 6×His antibody which then captured native TDP-43. […] After this immobilization step, binding by human antibodies was tested in regular buffers without interference of TDP-43 aggregation.
In general terms: ELISA stands for enzyme-linked immunosorbent assay.
For B4, the half-maximal effective concentration (EC50) was over 60 nM.
The molecule B5 gave an EC50 of 6.45 nM.
Same read-out and setting: as for B6, the figure is 19.4 nM.
Same read-out and setting: as for B7, the figure is 20.5 nM.
Still for that read-out and setting: with B1 the figure was over 100 nM; with B2, 4.6 nM; with B3, 9.7 nM.

The next test concerns the target T3, 6xHis-SUMO-TDP-43 (1-414), properly folded full length (human, UniProt Q13148 1-414).
T3 construct: Purified with KSCN and arginine, monomeric; captured on the plate by an anti-6xHis antibody; also called folded full-length TDP-43; 6xHis/SUMO tagged full length TDP-43; not shown: N-terminal 6xHis and SUMO tags from a modified pET19-b vector
The test is described as follows: capture ELISA, antigen held by anti-6xHis antibody. Here is the method: as §2, §3
In turn, B8 displayed an EC50 of over 94 nM.
The same measure, in the same setting: with B4 the figure was over 72 nM; with B5, 30.9 nM.
On the same count and under the same terms, as for B6, the figure is 41 nM.
For the molecule B9, the EC50 is over 100 nM.
The molecule B7 yielded a 50% effective concentration (EC50) of over 90 nM.
As for B1, the EC50 is over 120 nM.
The same measure, in the same setting: as for B2, the figure is 34 nM; as for B3, 16.3 nM.

In another test the target is T4, His-huTDP-43 domain III (amino acid residues 183-273) (human).
T4 construct: Amino terminal His-tagged fragment, E. coli
T4 chain: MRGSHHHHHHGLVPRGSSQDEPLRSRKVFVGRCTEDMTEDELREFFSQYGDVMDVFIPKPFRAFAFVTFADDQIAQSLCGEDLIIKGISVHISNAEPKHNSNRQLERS
Description: Western blot, 300 ng recombinant protein per lane, primary antibody 10 nM. How it is done: (§4) Non-specific binding sites were blocked for 1 hr. at room temperature with PBST containing 2% BSA (Sigma, Buchs, Switzerland). Blots were incubated overnight with primary antibodies (10 nM) followed by either a donkey anti-human IgGγ-specific secondary antibody conjugated with HRP (Jackson ImmunoResearch, USA) or a goat-anti mouse IgG (H+L)-specific secondary antibody conjugated with HRP (Jackson ImmunoResearch, USA). Blots were developed using ECL and ImageQuant 350 detection (GE Healthcare, Otelfingen, Switzerland).
B5: the binding result is “no binding (tested: 10 nM)”.
On the same count and under the same terms, as for B7, the entry is “no binding (tested: 10 nM)”; as for B2, “no binding (tested: 10 nM)”.
Same read-out and setting: with B3 the entry was “no binding (tested: 10 nM)”.

The target in the next test is T5, His-huTDP-43 domain I (amino acid residues 2-106) (human).
T5 construct: Amino terminal His-tagged fragment, E. coli; also called N-terminal domain
T5 chain: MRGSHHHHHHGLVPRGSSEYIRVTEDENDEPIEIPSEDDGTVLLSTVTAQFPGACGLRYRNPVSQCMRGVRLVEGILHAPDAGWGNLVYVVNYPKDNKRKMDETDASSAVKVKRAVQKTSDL
The test is described as above. How it is done:
as §4
In the case of B5, the binding result is “no binding (tested: 10 nM)”.
Still for that read-out and setting: with B7 the entry was “no binding (tested: 10 nM)”; with B3, “no binding (tested: 10 nM)”.

The next test concerns the target T6, His-huTDP-43 domain II (amino acid residues 99-204) (human).
T6 construct: Amino terminal His-tagged fragment, E. coli
T6 chain: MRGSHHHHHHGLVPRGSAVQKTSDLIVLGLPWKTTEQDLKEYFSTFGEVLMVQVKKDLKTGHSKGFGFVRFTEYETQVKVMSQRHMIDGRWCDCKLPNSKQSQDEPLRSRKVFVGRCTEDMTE
The description is as above. How it is done: as §4
As to B5, the binding result is recorded as “no binding (tested: 10 nM)”.
Still for that read-out and setting: as for B7, the entry is “no binding (tested: 10 nM)”; as for B3, “no binding (tested: 10 nM)”.

The target in another test is T4, His-huTDP-43 domain III (amino acid …). Description: direct ELISA, His-tagged TDP-43 fragments coated at 6.6 ug/ml, OD 450. How it is done:
(§5) Non-specific binding sites were blocked for 1 hr. at room temperature with PBST containing 2% BSA (Sigma, Buchs, Switzerland). Antibodies were incubated 1 hr. at room temperature. Binding was determined using either a donkey anti-human IgGγ-specific antibody conjugated with HRP (Jackson ImmunoResearch, USA) or a goat-anti mouse IgG (H+L)-specific secondary antibody conjugated with HRP (Jackson ImmunoResearch, USA)., followed by measurement of HRP activity in a standard colorimetric assay.
In the case of B1, the binding result is on record as “no binding”.

The next test addresses T5, His-huTDP-43 domain I (amino acid …). The description is as above. Here is the method:
as §5
Turning to B1, the binding result is “no binding”.
As to B2, the binding result was “no binding”.

For a further test, the target named is T6, His-huTDP-43 domain II (amino acid …). The description is as above. How it is done: as §5
On to B1, for which the binding result was “no binding”.

The next test concerns the target T1, recombinant full-length His-tagged …. The test is described as follows: direct ELISA, coated antigen. This is another data set of the same source. Here is the method: as §1
Turning to B8, the binding result is given as “no binding”.
For the molecule B4, the 50% effective concentration (EC50) was over 72 nM.
Still for that read-out and setting: with B5 the figure was 15.3 nM; with B6, over 41 nM; with B9, over 100 nM.
Still for that read-out and setting: as for B7, the figure is 7.3 nM.
For B1, the EC50 was determined as 13.3 nM.
For the molecule B2, the EC50 amounted to 7.2 nM.
The same measure, in the same setting: with B3 the figure was 7.2 nM.
